The values that follow come from PMC5610305.

Experiment [1] has as its target Plasmodium falciparum actin I (unlabeled) (Plasmodium falciparum) (UniProt Q8I4X0). Nature of the experiment: co-sedimentation; pelleting assay: unlabeled actin polymerized overnight at 22 °C in F-buffer (50 mM KCl, 4 mM MgCl2, 1 mM EGTA), ultracentrifugation at 434,500 g or 100,000 g, 20 °C, 1 h; supernatant and pellet by SDS-PAGE densitometry; also at different actin concentrations.

The target is the same in experiment [2]. Nature of the experiment: native gel or EMSA; native PAGE of 25 µM polymerized PfActI with and without ultracentrifugation at 434,500 g; running buffer with sample-matched ATP:ADP ratio and 0.1 mM MgCl2; SYPRO Orange, densitometry. In general terms: In EMSA bound probe runs differently from free probe, usually more slowly.
Experiment [3] has as its target Plasmodium falciparum actin I, pyrene-labeled (Plasmodium falciparum) (UniProt Q8I4X0). Nature of the experiment: other fluorescence titration; steady-state critical concentration in classical non-polymerizing buffer (G-buffer): pyrene-labeled PfActI, 16 h at 20 °C; two-line fit of pyrene fluorescence.
For experiment [4] the target is unchanged. Nature of the experiment: dilution-induced depolymerization (pyrene fluorescence); 30% pyrene-labeled actins, 5 µM polymerized overnight, diluted 100-fold to 50 nM in F-buffer; single-phase exponential decay fit.
Experiment [5] shares this target. Nature of the experiment: other fluorescence titration; steady-state critical concentration in F-buffer: pyrene-labeled actin polymerized, diluted to a series of concentrations up to 5 µM, 16 h at 20 °C (methods: overnight at 22 °C); two-line fit of pyrene fluorescence.

One may read the stoichiometry N as a count of units in the complex or per binding partner. With “Plasmodium falciparum actin I (unlabeled) (from UniProt Q8I4X0 1-376) (natural protein)”, in experiment [1], the % of total protein in the pellet (100,000 g) stood at 60% and the % of total protein in the pellet (434,500 g) worked out at 70%. In experiment [2], the % of total band intensity as dimers was determined as 56.2%, the % of total band intensity as polymers was 43.4%, the monomer concentration left at steady state (from the monomer band) turned out to be 0.11 µM and the stoichiometry N worked out at 2.
In experiment [3], “Plasmodium falciparum actin I, pyrene-labeled (from UniProt Q8I4X0 1-376) (natural protein)” registered a Cc (critical concentration, G-buffer, the experiment shown) of 0.04 µM and a Cc (critical concentration, steady state, G-buffer) of 0.06 µM. Besides, in experiment [4], the apparent rate constant of depolymerization (single-phase decay) was determined as 0.0093 s⁻¹, the depolymerization rate constant adjusted by filament concentration (100 nm filament length assumed) amounted to 0.4 s⁻¹ and the half-time of depolymerization was determined as 74 s. In experiment [5], this substance returned a Cc (critical concentration, F-buffer, the experiment shown) of 0.13 µM and a Cc (critical concentration, steady state, F-buffer) of 0.11 µM.
